Results reported in the supplement of paper PMC10065799, “High-throughput profiling of sequence recognition by tyrosine kinases and SH2 domains using bacterial peptide display” (eLife, 2023).

How the values were obtained:
[1] = test system: c-Src; assay: phosphorylation enrichment, bacterial display (enrichment ratio); higher = better substrate or ligand; peptides without Tyr show the background
[2] = test system: Fer (mouse); assay: as above
[3] = target: Hck (UniProt P08631); assay: as above
[4] = target: Jak2 (UniProt O60674); assay: as above
Chain of Jak2 (O60674 whole entry, looked up): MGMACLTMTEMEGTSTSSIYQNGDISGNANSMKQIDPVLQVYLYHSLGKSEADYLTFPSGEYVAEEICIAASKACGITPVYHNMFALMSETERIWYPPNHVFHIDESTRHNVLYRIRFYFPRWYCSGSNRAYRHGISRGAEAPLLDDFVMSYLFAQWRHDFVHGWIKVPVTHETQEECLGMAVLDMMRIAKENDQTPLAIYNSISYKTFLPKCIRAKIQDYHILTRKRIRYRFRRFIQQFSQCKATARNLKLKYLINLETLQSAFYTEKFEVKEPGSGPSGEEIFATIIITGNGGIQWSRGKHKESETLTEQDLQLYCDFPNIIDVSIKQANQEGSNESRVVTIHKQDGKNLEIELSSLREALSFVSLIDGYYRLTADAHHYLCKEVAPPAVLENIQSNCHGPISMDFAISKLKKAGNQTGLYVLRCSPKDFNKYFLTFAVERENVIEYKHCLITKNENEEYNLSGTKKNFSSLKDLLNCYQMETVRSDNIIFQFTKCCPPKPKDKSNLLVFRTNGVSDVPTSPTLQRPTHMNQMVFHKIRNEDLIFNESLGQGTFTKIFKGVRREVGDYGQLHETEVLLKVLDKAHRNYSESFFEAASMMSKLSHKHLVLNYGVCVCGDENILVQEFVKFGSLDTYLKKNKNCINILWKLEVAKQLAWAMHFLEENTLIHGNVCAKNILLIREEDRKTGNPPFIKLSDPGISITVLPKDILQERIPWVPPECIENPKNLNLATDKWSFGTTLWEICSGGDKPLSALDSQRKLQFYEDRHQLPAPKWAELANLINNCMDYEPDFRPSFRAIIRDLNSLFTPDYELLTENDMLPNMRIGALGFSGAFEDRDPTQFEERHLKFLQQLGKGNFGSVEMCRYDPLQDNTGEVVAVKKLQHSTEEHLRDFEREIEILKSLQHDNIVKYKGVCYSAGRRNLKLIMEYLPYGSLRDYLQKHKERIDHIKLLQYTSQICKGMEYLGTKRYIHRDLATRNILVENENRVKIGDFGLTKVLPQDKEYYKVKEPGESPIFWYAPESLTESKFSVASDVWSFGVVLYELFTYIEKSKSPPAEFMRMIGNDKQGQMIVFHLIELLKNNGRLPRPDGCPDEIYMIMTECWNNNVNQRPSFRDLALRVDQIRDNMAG

[5] = target: MERTK (UniProt Q12866); assay: as above
Chain of MERTK (Q12866 whole entry, looked up): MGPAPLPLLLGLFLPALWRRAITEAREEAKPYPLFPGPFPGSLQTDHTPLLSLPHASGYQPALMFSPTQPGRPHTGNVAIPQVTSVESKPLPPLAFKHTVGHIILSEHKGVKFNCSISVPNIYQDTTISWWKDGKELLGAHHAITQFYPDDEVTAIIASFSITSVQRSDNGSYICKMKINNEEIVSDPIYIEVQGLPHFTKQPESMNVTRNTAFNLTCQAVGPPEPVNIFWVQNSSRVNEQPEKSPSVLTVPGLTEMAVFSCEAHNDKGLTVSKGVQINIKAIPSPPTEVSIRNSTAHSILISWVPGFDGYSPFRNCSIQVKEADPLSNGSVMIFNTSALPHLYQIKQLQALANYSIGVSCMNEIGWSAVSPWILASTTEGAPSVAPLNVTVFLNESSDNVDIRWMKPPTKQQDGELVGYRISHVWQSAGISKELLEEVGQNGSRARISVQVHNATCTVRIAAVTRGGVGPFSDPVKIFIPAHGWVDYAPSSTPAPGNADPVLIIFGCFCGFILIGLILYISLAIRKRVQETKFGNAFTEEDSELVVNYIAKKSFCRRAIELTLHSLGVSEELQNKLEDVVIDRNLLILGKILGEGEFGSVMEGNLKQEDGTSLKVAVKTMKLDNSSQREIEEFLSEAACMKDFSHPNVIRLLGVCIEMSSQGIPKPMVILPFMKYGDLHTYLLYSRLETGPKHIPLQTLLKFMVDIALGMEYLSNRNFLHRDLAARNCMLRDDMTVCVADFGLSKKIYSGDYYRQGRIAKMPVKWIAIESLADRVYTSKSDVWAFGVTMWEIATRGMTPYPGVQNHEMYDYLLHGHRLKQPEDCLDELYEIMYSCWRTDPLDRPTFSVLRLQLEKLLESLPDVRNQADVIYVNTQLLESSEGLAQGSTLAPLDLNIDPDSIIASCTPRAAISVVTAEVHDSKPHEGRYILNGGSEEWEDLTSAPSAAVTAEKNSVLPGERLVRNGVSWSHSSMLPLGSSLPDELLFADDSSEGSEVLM

[6] = target: Fes (UniProt P07332); assay: as above
Chain of Fes (P07332 whole entry, looked up): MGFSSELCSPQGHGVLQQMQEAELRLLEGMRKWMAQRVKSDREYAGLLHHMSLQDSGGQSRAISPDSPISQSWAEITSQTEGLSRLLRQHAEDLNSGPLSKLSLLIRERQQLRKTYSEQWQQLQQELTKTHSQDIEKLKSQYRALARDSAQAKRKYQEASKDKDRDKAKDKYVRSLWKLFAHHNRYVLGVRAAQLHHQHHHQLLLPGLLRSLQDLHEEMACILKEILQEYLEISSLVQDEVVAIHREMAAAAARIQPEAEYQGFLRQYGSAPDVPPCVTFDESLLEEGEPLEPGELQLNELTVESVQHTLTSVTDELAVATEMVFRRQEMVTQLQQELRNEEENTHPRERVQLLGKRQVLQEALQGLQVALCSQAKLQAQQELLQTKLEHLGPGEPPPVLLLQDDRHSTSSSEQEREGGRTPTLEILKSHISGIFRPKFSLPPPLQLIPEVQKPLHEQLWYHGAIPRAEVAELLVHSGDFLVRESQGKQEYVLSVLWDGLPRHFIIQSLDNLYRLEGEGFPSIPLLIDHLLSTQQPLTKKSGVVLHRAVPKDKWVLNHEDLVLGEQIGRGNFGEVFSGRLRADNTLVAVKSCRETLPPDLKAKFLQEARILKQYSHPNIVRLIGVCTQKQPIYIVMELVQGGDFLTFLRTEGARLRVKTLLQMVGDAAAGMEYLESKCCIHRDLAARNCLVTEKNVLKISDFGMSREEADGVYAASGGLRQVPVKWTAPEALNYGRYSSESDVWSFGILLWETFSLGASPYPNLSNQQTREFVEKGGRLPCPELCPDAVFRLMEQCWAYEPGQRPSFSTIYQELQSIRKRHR

[7] = target: EPHB2 (UniProt P29323); assay: as above
Chain of EPHB2 (P29323 whole entry, looked up): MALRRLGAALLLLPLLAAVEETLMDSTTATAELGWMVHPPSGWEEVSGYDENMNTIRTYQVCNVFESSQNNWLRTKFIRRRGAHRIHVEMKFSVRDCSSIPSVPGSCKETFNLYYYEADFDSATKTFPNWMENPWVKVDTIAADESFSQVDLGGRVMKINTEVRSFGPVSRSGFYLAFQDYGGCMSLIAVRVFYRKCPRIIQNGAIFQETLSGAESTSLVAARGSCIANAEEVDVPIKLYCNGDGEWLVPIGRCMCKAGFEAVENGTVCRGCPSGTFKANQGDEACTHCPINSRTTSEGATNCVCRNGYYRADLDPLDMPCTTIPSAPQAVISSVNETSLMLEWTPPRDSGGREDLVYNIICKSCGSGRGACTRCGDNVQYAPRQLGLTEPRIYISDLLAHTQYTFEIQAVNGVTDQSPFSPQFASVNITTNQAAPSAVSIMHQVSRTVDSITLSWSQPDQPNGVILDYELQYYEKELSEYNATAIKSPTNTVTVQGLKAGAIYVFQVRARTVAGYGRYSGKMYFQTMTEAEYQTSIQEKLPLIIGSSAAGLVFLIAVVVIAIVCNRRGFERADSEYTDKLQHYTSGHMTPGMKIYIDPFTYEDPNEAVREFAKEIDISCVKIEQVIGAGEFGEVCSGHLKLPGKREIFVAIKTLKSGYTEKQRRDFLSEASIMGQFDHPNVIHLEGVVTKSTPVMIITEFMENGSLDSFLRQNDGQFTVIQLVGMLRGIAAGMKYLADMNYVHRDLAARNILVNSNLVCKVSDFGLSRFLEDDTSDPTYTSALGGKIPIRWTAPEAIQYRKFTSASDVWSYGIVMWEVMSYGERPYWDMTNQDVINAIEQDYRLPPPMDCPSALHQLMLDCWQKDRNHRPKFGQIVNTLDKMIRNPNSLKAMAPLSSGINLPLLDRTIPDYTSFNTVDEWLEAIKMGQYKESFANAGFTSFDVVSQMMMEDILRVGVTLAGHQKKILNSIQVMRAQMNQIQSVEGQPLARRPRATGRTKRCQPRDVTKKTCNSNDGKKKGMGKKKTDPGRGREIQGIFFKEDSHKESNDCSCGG

[8] = target: Fyn (UniProt P06241); assay: as above
[9] = test system: AncSZ; assay: as above
[10] = test system: c-Abl (mouse); assay: as above
[11] = target: FGFR1 (UniProt P11362); assay: as above
Chain of FGFR1 (P11362 whole entry, looked up): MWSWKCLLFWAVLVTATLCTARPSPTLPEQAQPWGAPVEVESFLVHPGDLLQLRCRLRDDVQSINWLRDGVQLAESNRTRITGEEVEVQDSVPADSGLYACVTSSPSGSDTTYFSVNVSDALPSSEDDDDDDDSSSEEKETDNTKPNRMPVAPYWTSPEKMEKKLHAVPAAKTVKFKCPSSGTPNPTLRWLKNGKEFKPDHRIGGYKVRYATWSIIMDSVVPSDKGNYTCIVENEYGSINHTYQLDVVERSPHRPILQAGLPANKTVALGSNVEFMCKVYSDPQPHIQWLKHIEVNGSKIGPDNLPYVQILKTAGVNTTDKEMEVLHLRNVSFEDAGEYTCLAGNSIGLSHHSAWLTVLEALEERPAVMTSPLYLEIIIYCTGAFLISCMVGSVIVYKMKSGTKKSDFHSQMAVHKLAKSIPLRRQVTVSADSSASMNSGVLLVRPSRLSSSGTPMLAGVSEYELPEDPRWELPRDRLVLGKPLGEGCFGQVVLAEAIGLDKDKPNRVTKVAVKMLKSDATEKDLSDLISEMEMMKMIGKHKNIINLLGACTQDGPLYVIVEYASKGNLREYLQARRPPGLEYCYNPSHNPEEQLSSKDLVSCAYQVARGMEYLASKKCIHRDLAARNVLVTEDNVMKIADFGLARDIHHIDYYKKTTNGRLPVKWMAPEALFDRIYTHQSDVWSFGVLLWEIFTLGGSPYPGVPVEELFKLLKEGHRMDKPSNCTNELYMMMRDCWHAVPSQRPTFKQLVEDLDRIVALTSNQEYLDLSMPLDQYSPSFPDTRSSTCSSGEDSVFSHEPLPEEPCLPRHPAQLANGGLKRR

[12] = target: FGFR3 (UniProt P22607); assay: as above
[13] = target: EPHB1 (UniProt P54762); assay: as above
[14] = target: Grb2 SH2 (UniProt P62993); assay: SH2 binding enrichment of the phosphorylated peptide, bacterial display (enrichment ratio); higher = better substrate or ligand; peptides without Tyr show the background
[15] = target: SHP2-C SH2; assay: as above
[16] = target: c-Src SH2; assay: as above
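Wherever SH2 binding enrichment of the phosphorylated peptide, bacterial display is given: peptide library displayed on the E. coli surface as eCPX fusions, selected cells deep-sequenced, score is each peptide's frequency after selection divided by its frequency in the input.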
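Wherever phosphorylation enrichment, bacterial display is given: 11-residue human phosphosite peptides and single-mutation variants displayed on the E. coli surface, counted by deep sequencing, each peptide's frequency after selection divided by its frequency in the unselected input library; frequency after pTyr selection over input frequency; kinase dosed for 20-30% of maximal phosphorylation in three min.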

| SH2 binding enrichment [14] | SH2 binding enrichment [15] | SH2 binding enrichment [16] | Sequence | phosphorylation enrichment [1] | phosphorylation enrichment [2] | phosphorylation enrichment [3] | phosphorylation enrichment [4] | phosphorylation enrichment [5] | phosphorylation enrichment [6] | phosphorylation enrichment [7] | phosphorylation enrichment [8] | phosphorylation enrichment [9] | phosphorylation enrichment [10] | phosphorylation enrichment [11] | phosphorylation enrichment [12] | phosphorylation enrichment [13] |
| --- | --- | --- | --- | --- | --- | --- | --- | --- | --- | --- | --- | --- | --- | --- | --- | --- |
| 0.769 | 0.381 | 0.439 | IIQRAYRRHLL [SCN1A_Y1926] | 0.584 | 0.497 | 0.576 | 0.491 | 0.608 | 0.619 | 0.433 | 0.509 | 0.845 | 0.552 | 0.499 | 0.525 | 0.479 |
| 0.803 | 0.85 | 0.678 | NRVEIYEKTVE [CYFIP1_Y108] | 0.599 | 0.582 | 0.628 | 1.27 | 0.5 | 1.18 | 0.654 | 0.511 | 1.07 | 0.919 | 0.523 | 0.696 | 0.713 |
| 0.877 | 0.717 | 0.52 | FADIAYNYRHG [PAH_Y166] | 0.398 | 0.456 | 0.462 | 0.754 | 0.404 | 0.887 | 0.503 | 0.423 | 0.711 | 0.577 | 0.403 | 0.561 | 0.45 |
| 0.793 | 1.22 | 0.567 | IHHIDYYKKTT [FGFR1_Y653] | 0.487 | 0.961 | 0.425 | 0.534 | 0.508 | 0.741 | 0.544 | 0.381 | 0.783 | 0.524 | 0.473 | 0.484 | 0.408 |
| 0.722 | 0.576 | 0.552 | PVDVAYRHGFF [PLEC_Y2967_R2969H_YF] | 0.325 | 0.342 | 0.553 | 0.511 | 0.366 | 0.85 | 0.268 | 0.324 | 0.482 | 0.473 | 0.574 | 0.458 | 0.32 |
| 0.529 | 0.513 | 0.456 | ARGMEYLASKK [FGFR1_Y613] | 0.403 | 0.324 | 0.367 | 0.662 | 0.354 | 0.566 | 0.367 | 0.364 | 0.61 | 0.506 | 0.285 | 0.409 | 0.356 |
| 1.83 | 1.68 | 1.84 | KRLYAYKMLMA [TMC2_Y209_Q205R] | 0.399 | 0.42 | 0.436 | 0.675 | 0.348 | 0.869 | 0.493 | 0.327 | 0.731 | 0.684 | 0.453 | 0.568 | 0.492 |
| 0.671 | 0.733 | 0.549 | GRVLGYGAFRK [FLT4_Y853_G857R] | 0.52 | 0.406 | 0.486 | 0.539 | 0.482 | 0.586 | 0.432 | 0.517 | 0.634 | 0.644 | 0.477 | 0.495 | 0.44 |
| 0.962 | 0.624 | 0.406 | TYGVLYKARNK [CDK2_Y19_V18L] | 3.29 | 0.438 | 2.86 | 0.565 | 0.689 | 0.691 | 0.532 | 2.88 | 0.539 | 0.519 | 0.394 | 0.483 | 0.398 |
| 0.708 | 0.69 | 0.493 | TEGNEYVFRVA | 0.528 | 0.44 | 0.486 | 0.949 | 0.421 | 1.28 | 0.627 | 0.583 | 1.08 | 0.647 | 0.647 | 0.822 | 0.593 |
| 0.84 | 0.514 | 0.452 | SAVTGYRVDVI [FN1_Y937] | 0.353 | 0.335 | 0.374 | 0.616 | 0.358 | 0.566 | 0.377 | 0.425 | 0.546 | 0.432 | 0.398 | 0.534 | 0.368 |
| 1.02 | 0.812 | 0.504 | KIVQDYLEKFY [MMP8_Y36_T32I] | 0.449 | 0.428 | 0.47 | 0.719 | 0.483 | 0.975 | 0.735 | 0.452 | 0.885 | 0.579 | 0.521 | 0.595 | 0.557 |
| 0.728 | 0.986 | 0.322 | YGPPQYNIQYS [ERBB2IP_Y977] | 0.617 | 0.672 | 0.72 | 0.655 | 0.602 | 0.802 | 0.592 | 0.549 | 0.989 | 0.858 | 0.462 | 0.557 | 0.412 |
| 1.04 | 0.66 | 0.646 | VDTFWYKLLKR [EPM2A_Y86_F88L] | 0.347 | 0.456 | 0.331 | 0.937 | 0.342 | 1.06 | 0.548 | 0.372 | 0.971 | 0.748 | 0.439 | 0.644 | 0.493 |
| 0.933 | 0.769 | 0.723 | GLRYGYGVLGG [KRTAP20-2_Y15] | 0.9 | 0.432 | 0.443 | 0.586 | 0.413 | 0.605 | 0.398 | 0.495 | 0.596 | 0.487 | 0.447 | 0.497 | 0.407 |
| 0.632 | 0.638 | 0.41 | EMTAEYTCTRK [ACAD9_Y325_A326T] | 0.477 | 0.513 | 0.699 | 0.757 | 0.465 | 0.974 | 0.607 | 0.624 | 1.14 | 0.636 | 0.654 | 0.636 | 0.674 |
| 1.27 | 0.878 | 1.08 | KLMTEYKKRKQ [ARFGEF3_Y2029] | 0.442 | 0.411 | 0.459 | 0.653 | 0.52 | 0.69 | 0.34 | 0.418 | 0.478 | 0.629 | 0.331 | 0.543 | 0.336 |

| SH2 binding enrichment [14] | SH2 binding enrichment [15] | SH2 binding enrichment [16] | Sequence | phosphorylation enrichment [1] | phosphorylation enrichment [2] | phosphorylation enrichment [3] | phosphorylation enrichment [4] | phosphorylation enrichment [5] | phosphorylation enrichment [6] | phosphorylation enrichment [7] | phosphorylation enrichment [8] | phosphorylation enrichment [9] | phosphorylation enrichment [10] | phosphorylation enrichment [11] | phosphorylation enrichment [12] | phosphorylation enrichment [13] |
| --- | --- | --- | --- | --- | --- | --- | --- | --- | --- | --- | --- | --- | --- | --- | --- | --- |
| 0.741 | 11.5 | 0.649 | GLTSTYVGIRK [ROBO1_Y932_A933V] | 0.562 | 0.374 | 1.67 | 0.598 | 0.463 | 0.775 | 0.506 | 0.528 | 0.756 | 0.565 | 0.46 | 0.489 | 0.471 |
| 0.712 | 0.464 | 0.351 | MKGEFYRFLAE [YWHAG_Y131_D129E_YF] | 0.382 | 0.4 | 0.414 | 0.907 | 0.372 | 0.902 | 0.455 | 0.392 | 0.77 | 0.627 | 0.336 | 0.529 | 0.426 |
| 0.825 | 0.699 | 0.441 | SYPHEYGSQEG [RBM10_Y48_R46H] | 0.415 | 0.411 | 0.458 | 0.767 | 0.465 | 0.87 | 0.44 | 0.402 | 0.835 | 0.591 | 0.54 | 0.559 | 0.483 |
| 0.922 | 0.924 | 0.699 | EEGESDVCSSD [DCX_Y125_Y125D] | 0.518 | 0.479 | 0.457 | 0.797 | 0.495 | 0.939 | 0.507 | 0.505 | 1.04 | 0.621 | 0.497 | 0.544 | 0.525 |
| 1.26 | 0.974 | 0.64 | EILLSYLRTGF [TGM1_Y365_YF] | 0.394 | 0.411 | 0.41 | 0.981 | 0.387 | 0.943 | 0.967 | 0.401 | 1.05 | 0.492 | 0.433 | 0.619 | 0.418 |
| 1.45 | 1.25 | 1.05 | LLKAGYHGVLR [TTPA_Y100] | 0.906 | 0.671 | 0.453 | 0.903 | 0.631 | 1.35 | 0.562 | 0.693 | 0.964 | 0.926 | 0.646 | 0.679 | 0.686 |
| 0.911 | 0.683 | 0.429 | PTDSVYVMPTV [MYO7A_Y1668] | 4.43 | 0.77 | 3.43 | 0.827 | 8.35 | 0.926 | 0.708 | 8.58 | 2.78 | 3.01 | 2.32 | 1.68 | 1.15 |
| 0.864 | 1.02 | 1.42 | KDFNKYVAFIE [KDM4B_Y31_YF] | 0.456 | 0.434 | 0.505 | 0.744 | 0.424 | 0.836 | 0.429 | 0.513 | 0.799 | 0.629 | 0.399 | 0.581 | 0.43 |
| 0.958 | 0.698 | 0.383 | PGLRGYPGLSG [COL4A2_Y306] | 0.674 | 0.449 | 0.505 | 1.45 | 0.599 | 0.87 | 0.442 | 0.481 | 0.709 | 0.508 | 0.621 | 0.468 | 0.894 |
| 0.892 | 0.838 | 0.571 | RQQEDYLLFKQ [RARRES1_Y159_YF] | 0.576 | 0.637 | 1.16 | 1.39 | 0.516 | 1.85 | 0.978 | 0.68 | 1.57 | 0.924 | 1.45 | 1.28 | 1.11 |
| 0.862 | 3.12 | 0.727 | VYLGAYDRFLP [SLC22A5_Y486] | 4.49 | 1.88 | 5.32 | 0.74 | 4.72 | 0.992 | 2.53 | 4.5 | 1.25 | 1.2 | 0.948 | 0.803 | 1.82 |
| 1.59 | 1.41 | 1.11 | NIISFYLSRDP [CTSD_Y232_F229I] | 0.346 | 0.43 | 0.451 | 0.958 | 0.36 | 1.27 | 0.498 | 0.446 | 1.18 | 0.655 | 0.516 | 0.773 | 0.529 |
| 0.542 | 0.435 | 1.15 | IRRIAYEFVEM [ADA_Y84_K80R] | 0.458 | 2.85 | 0.433 | 0.638 | 0.469 | 0.872 | 0.543 | 0.417 | 0.887 | 0.489 | 0.869 | 0.511 | 0.343 |
| 0.825 | 0.783 | 0.538 | SVVVPNEPPEV [TP53_Y220_Y220N] | 0.517 | 0.691 | 0.581 | 1.05 | 0.439 | 1.43 | 0.665 | 0.539 | 1.03 | 0.711 | 0.63 | 0.81 | 0.645 |
| 0.752 | 0.484 | 0.477 | IGEVVYQRAVM [GRIN2A_Y502] | 1.57 | 1.46 | 2.19 | 0.688 | 0.513 | 0.856 | 0.554 | 1.14 | 0.869 | 8.27 | 0.434 | 0.595 | 0.883 |
| 0.936 | 1.33 | 3.04 | SMGHRYIEVFR [HNRNPF_Y82_K87R] | 0.367 | 0.483 | 0.453 | 0.688 | 0.474 | 0.691 | 0.576 | 0.335 | 0.622 | 0.514 | 0.53 | 0.506 | 0.451 |
